Earlier results in paper PMC10454195.

Molecular target: GLP-1 receptor (Homo sapiens) (UniProt P43220)
Chain of UniProt P43220 (P43220 24-463): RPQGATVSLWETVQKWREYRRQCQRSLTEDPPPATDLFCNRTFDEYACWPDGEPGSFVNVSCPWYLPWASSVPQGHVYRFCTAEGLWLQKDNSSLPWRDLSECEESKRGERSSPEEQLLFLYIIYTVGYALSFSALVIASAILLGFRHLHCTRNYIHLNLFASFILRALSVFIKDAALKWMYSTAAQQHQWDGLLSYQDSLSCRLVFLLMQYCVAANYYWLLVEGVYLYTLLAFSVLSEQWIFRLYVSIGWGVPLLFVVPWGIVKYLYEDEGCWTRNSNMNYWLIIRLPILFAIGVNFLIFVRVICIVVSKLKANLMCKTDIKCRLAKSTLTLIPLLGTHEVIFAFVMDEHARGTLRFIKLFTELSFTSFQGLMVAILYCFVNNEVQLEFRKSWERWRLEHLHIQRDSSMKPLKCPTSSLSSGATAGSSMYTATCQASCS

Chain of GLP-1 (P01275 98-127): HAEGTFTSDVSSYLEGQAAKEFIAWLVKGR

- Kd: 5 nM
Substance: GLP-1 (from UniProt P01275)
